Tests used:
[1] = target: human CD4 antigen expressed on rat T cell line NB2-6TG (human) (UniProt P01730); assay: FACS, NB2-6TG cells transfected with human CD4; Experiment 1; control antibody at 100 µg/ml
[2] = target: human CD4 antigen expressed on rat T cell line NB2-6TG (human) (UniProt P01730); assay: FACS, NB2-6TG cells transfected with human CD4; Experiment 1; control antibody at 10 µg/ml
[3] = target: human CD4 antigen expressed on rat T cell line NB2-6TG (human) (UniProt P01730); assay: FACS, NB2-6TG cells transfected with human CD4; Experiment 1; control antibody at 40 µg/ml
[4] = target: human CD4 antigen expressed on rat T cell line NB2-6TG (human) (UniProt P01730); assay: FACS, NB2-6TG cells transfected with human CD4; Experiment 1; control antibody at 2.5 µg/ml

Mean cellular Fluorescence [1]: 11.6
Mean cellular Fluorescence [2]: 9
Mean cellular Fluorescence [3]: 9.4
Mean cellular Fluorescence [4]: 8.6
Substance: reshaped CAMPATH-1 antibody
